# According to the supplement of paper PMC9170038:
# Test system: MS2 coat protein
# Assay: apparent KD of MS2 coat protein; designed switch direction (-1 OFF switch, 1 ON switch): -1; higher = weaker reporter binding
# Outline: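 On Illumina chips, designed RNA switches with common flanks were made by stalled E. coli RNA polymerase. Titrations with SNAP-549-labelled MS2 coat protein, doubling from 0.7 or 1.5 nM to 3 µM, were done with no input, with 200 uM small-molecule ligand, or with an oligonucleotide input. Apparent KD is the median per design over clusters, from curve fits of normalised cluster fluorescence.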
# [1] = Eterna round: R95, input ligand: FMN 200 uM
# [2] = Eterna round: R95, input ligand: microRNA oligo, concentration not stated
# [3] = Eterna round: R95, input ligand: none
# [4] = input ligand: microRNA oligo, concentration not stated
Sequence,apparent KD of MS2 coat protein [1] [nM],apparent KD of MS2 coat protein [2] [nM],apparent KD of MS2 coat protein [3] [nM],apparent KD of MS2 coat protein (input ligand: FMN 200 uM) [nM],apparent KD of MS2 coat protein [4] [nM],apparent KD of MS2 coat protein (input ligand: none) [nM]
AAAAAACAUGAGGAUCACCCAUGUCAGGAUAUCCGCGAAGGAAAGAAAAAAAAAAAAGGGAGAAGGGACAAAAA [April's Ex-date #4] (puzzle: Exclusion 1),49.5,52.8,28.5,,,
AAAAAGCGAGGAUAUACAUGAGGAUCACCCAUGUGAGGGCACCGCGGGCGCGGGACCGGUAGAAGGCGCAAAAA [Exc;s3-II] (puzzle: Exclusion 3),33.6,24.1,38.5,,,
"AAAACAAACGAAGGAUAUGCAACCCGGCGGUACGCAGAAGGUCGAAAGAUUUUCAUUCUACAUGAGGAUCACCCAUGUACGGGC [Leange] (Eterna round: R96, puzzle: Exclusion NG 1)",,,,48.5,39.7,52.3
"AAAACAAGCAUAAGAUCCCACAUGAGGAUCACCCAUGUGCUCGUCUUAUAAAAGGUUUCGACGAAAACGUCGAGACC [Eli 91 v30] (Eterna round: R97, puzzle: Sensor, turn-off variant 1)",,,,29.6,,29.6
AAAACACAUGAGGAUCACCCAUGUGAGGAUAUGUCCAUGCUCGGCAAACCGGGCAUGGACAGAAGGCACAUAAA [JR_Exclusion1_Sub015] (puzzle: Exclusion 1),,40.3,,,,
AAAACACAUGAGGAUCACCCAUGUGAGGAUAUGUUAAUUUUAAUGAAAAUUAAAAUUAACAGAAGGCACAGAAA [JR_Exclusion1_Sub024] (puzzle: Exclusion 1),46.3,45.6,54.2,,,
"AAAAGAAAACGAGGAUAUGCGCGUAACGUACAUCCUCUAGACAUGAGGAUCACCCAUGUAGCGCAGCAGAAGGCGUAAAAGAAA [Orises] (Eterna round: R96, puzzle: Exclusion NG 2)",,,,724,75,84.3
"AAAAGAAUAAAAGGAUAUAGGAAAGGAAGUGUACUAGAAGGUUUGUUAACAUGAGGAUCACCCAUGUGCUCAGACACAGGGUGC [PowerStrip EXNG 1.3] (Eterna round: R96, puzzle: Exclusion NG 1)",,,,,91.5,
AAAAGCUAAGGAUAUACAUGAGGAUCACCCAUGUACACCGGUACGGGUGCGAACUCCUGUAGAAGGUGGGAUAA [Atatlege] (puzzle: Exclusion 3),,121,,,,
AAAAGGACAGGAUAUUCGACUCGCAACAUGAGGAUCACCCAUGUGGUCGUCCAGUCGCUCGAAGAAGGGUUAAAAC [Cegeesbe] (puzzle: Exclusion 5),74.7,26.7,31.3,,,
"AAAAGUUUUCAGGAUAUGUGCGAUUAAUAUCGUGCAGAAGGGAGGACAUGAGGAUCACCCAUGUUGAAGACAAC [Omei Ex6 A18] (Eterna round: R97, puzzle: Exclusion 6)",,,,66.1,,80.2
AAAAUACAUGAGGAUCACCCAUGUUAGGAUAUGCAAAGCCCAGUUAGCUUUUGGGUAGGUAGAAGGGACGGGUA [Reenen] (puzzle: Exclusion 1),,21.5,,,,
AAAAUGUCAGGAUAUACGAAACAAAACAAAACAAAACAAAAGUAGAAGGGACAUGAGGAUCACCCAUGUAAGAA [Exclusion 4 #2] (puzzle: Exclusion 4),49.6,24.1,32.5,,,
"AAACCCUGAGGAUAUGCAUAACAACAAAGCCUCACGUGCCAACAUGAGGAUCACCCAUGUAGAAGGCGGGCCAA [Mod R3 Insanara 18 - Jieux - Exclusion 2] (Eterna round: R97, puzzle: Exclusion 2)",,,,24.3,,15.7
"AAACCUAGUCUAGGAUAUGGUGAGAGUUUGUCGGUGAGUACAUGAGGAUCACCCAUGUACGCUUGCUAGAAGGAGACAGGCUCG [Eternabot solution 37] (Eterna round: R96, puzzle: Exclusion NG 2)",,,,13.7,11.5,14.6
"AAACCUGCCCAUGACCGCAAGCUUUUUGCUUGUCUUACCACAUGAGGAUCACCCAUGUGGCAUGGGCUCCUUAUAAA [Xemave] (puzzle: Sensor v3, turn-off variant 2)",14.2,11.8,11.7,,,
"AAACGGGUGUCCUCGUUUUCAACAUGAGGAUCACCCAUGUUCGAGGAUAUCCGAUAAGCUCUUCAGGAGAAGGCGAACAUAAAA [Eninenat] (Eterna round: R96, puzzle: Exclusion NG 3)",,,,14.7,32.1,18.4
"AAAGAAACAUGAGGAUCACCCAUGUCUGAUCCAAUGUUUAGUCAGGAUAUGCGUCCGACUUCGGAGCAGAAGGGAUACAGGUAG [Anlaanma] (Eterna round: R96, puzzle: Exclusion NG 3)",,,,125,357,356
AAAGAGCUAGGAUAUCGCGACCUUGACAUGAGGAUCACCCAUGUGCCCUCGUAACAACGACGAGAAGGAGCGAAAA [Gelaladied] (puzzle: Exclusion 5),36.2,16.8,19.9,,,
"AAAGGGUCAGGAUAUCCUGUGAAGAAGAAGUUGUUGUCGCGGGAGAAGGGACAUGAGGAUCACCCAUGUAGAGC [A Simple Submission] (Eterna round: R97, puzzle: Exclusion 4)",,,,52.9,,53.6
"AAAGUGUAAGGAUAUCCGAAAAGCGAGCGAAAGCGAGCGAAGGAGAAGGUACAUGAGGAUCACCCAUGUAAGGG [AK-MS2ROC-r4-exclusion4-11.5] (Eterna round: R97, puzzle: Exclusion 4)",,,,215,,961
"AAAGUGUCAGGAUAUUGUUAGUUUAGUUGUUUGUAUUAGUUCGAGAAGGGACAUGAGGAUCACCCAUGUUGUAA [Ex4 #64] (Eterna round: R97, puzzle: Exclusion 4)",,,,24.5,,32.2
"AAAGUUCGAGGAUAUCUACUUAGCUACAUGAGGAUCACCCAUGUUAUCCUCCCGCUGGGAAGAGAAGGCGGUUAAA [Xeonceso] (Eterna round: R96, puzzle: Exclusion 5)",,,,138,27.1,34.1
AAAGUUCGAGGAUAUCUACUUAGCUACAUGAGGAUCACCCAUGUUAUCCUCCCGCUGGGAAGAGAAGGCGGUUAAA [Xeonceso] (puzzle: Exclusion 5),186,41.7,41.7,,,
"AAAUAACAAGCAGGAUCCUACAUGAGGAUCACCCAUGUGCUCGUCUUAUAAAGUACUAUCACGAAAGUGAUAGUACA [Sensor 3, v1 - 14] (puzzle: Sensor v3, turn-off variant 1)",434,84.6,363,,,
"AAAUAACAAGCGAGAUCCUACAUGAGGAUCACCCAUGUGCUCGUCUUAAGAAGUACUAUCACGAAAGUGAUAGUACA [Mat - Sensor v3 - turn-off var 1 - Eli Mod - D68] (puzzle: Sensor v3, turn-off variant 1)",17.6,66,14.7,,,
